Experimental data published in publication PMC3734085 (The Journal of Cell Biology, 2013).
Numbering of substitutions follows the chain as printed. In names and notes the source's numbering stands.

T1: Snc2p-M2-His6 (R75E R79E K82E) reconstituted into liposomes (S. cerevisiae, UniProt P33328 1-115, R75E | R79E | K82E)
T1 sequence: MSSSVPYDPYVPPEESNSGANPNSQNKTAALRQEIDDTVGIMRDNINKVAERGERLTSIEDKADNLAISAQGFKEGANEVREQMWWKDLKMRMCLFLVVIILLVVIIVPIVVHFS

B1: GST-Snc2p fragment (28–92 aa) (domain or fragment)
chain: TAALRQEIDDTVGIMRDNINKVAERGERLTSIEDKADNLAISAQGFKRGANRVRKQMWWKDLKMR
B2: His-MBP-Sec9ct (416–651 aa) (domain or fragment)
chain: ARQQQEEDEAVDEIKQEIKFTKQSSVASTRNTLKMAQDAERAGMNTLGMLGHQSEQLNNVEGNLDLMKVQNKVADEKVAELKKLNRSILAVHVSNPFNSKRRRREREEQLKNRKIEEKLMREQTSQQLSQSTQRIEGAMNANNNISEVRERYQRKNVLEKAKRYQFENDEEDDEMELEIDRNLDQIQQVSNRLKKMALTTGKELDSQQKRLNNIEESTDDLDINLHMNTNRLAGIR
B3: GST-Snc2p (cytosolic domain of Snc2p, 1–92 aa, fused to GST) (domain or fragment)
chain: MSSSVPYDPYVPPEESNSGANPNSQNKTAALRQEIDDTVGIMRDNINKVAERGERLTSIEDKADNLAISAQGFKRGANRVRKQMWWKDLKMR
B4: GST-Snc2p E51A E54A (M5) (domain or fragment)
chain: B3 chain with E51A, E54A
B5: GST-Snc2p K82A (domain or fragment)
chain: B3 chain with K82A
B6: GST-Snc2p E60K D61R D64R (M4) (domain or fragment)
chain: B3 chain with E60K, D61R, D64R
B7: GST-Snc2p E51R E54R (M6) (domain or fragment)
chain: B3 chain with E51R, E54R
B8: GST-Snc2p R75A (domain or fragment)
chain: B3 chain with R75A
B9: GST-Snc2p E60A D61A D64A (M3) (domain or fragment)
chain: B3 chain with E60A, D61A, D64A
B10: His-tagged Sec6p (pET46-Sec6) (natural protein)
chain: MSSDPLQQVCDLIKGDLSLERVRDIKEQLLKEKSVVEYQLNKESDKYYGEVEESLKLLNLSKNSVTSIKQQINEVNKLGNDNRFAINRYDILFRATKLYETVNTTSSIYDRIYNFVALMEHIERLLVAELAEDALETGCPHLLEIHFLLTSARDFQEQVVVMAKEATEDAQRTVMKLFSRLSGIISKFDKLLDGLTYDIVEMARAEQISLAIRLFKIYDLEEREDLRIEAIRNIIKKKEIEIEKSSIKKLPNSKNTARLQDETPKVIEYPTNKGLYQEIMSGTISTRTAPRGYKHFLINGINNSISEMFGEMREKYVGDQKFDVLDNMDWIFNELIIVKEHIANCCPPHWNIFEVYFDQYYKELHSLITDLVESEPETIIILDILAFDKTFQDTLKQDFGFTKSEVKSVIGDKEKETLFKDYLNLIVVKMTEWIGNLEKAEFDVFLERSTPPHSDSDGLLFLDGTKTCFQMFTQQVEVAAGTNQAKILVGVVERFSDLLTKRQKNWISKISEEIKKQINYNHKYDIDPESITPEDECPGGLVEYLIAVSNDQMKAADYAVAISSKYGKLVSKVYEKQITNHLEGTLDGFAEVAQCSSLGLITLMFDDLRKPYQEIFSKTWYMGSQAQQIADTLDEYLLDIKPQMNSVLFVNFIDNVIGETIIKFLTALSFEHSFKNKNNKFLEAMKRDFEIFYQLFVKVLDGNESKDTLITQNFTVMEFFMDLSCEPIDSILDIWQKYLEVYWDSRIDLLVGILKCRKDVSSSERKKIVQQATEMLHEYRRNMEANGVDREPTLMRRFVLEFEKQ
B11: Snc2p-His6, full-length Snc2p reconstituted into liposomes (natural protein)
chain: T1 sequence with E75R, E79R, E82K

Target: B10
Test: pull-down

| binding result | Kd [µM] | Binder |
| --- | --- | --- |
| binds |  | B1 |
| binds |  | B2 |
|  | 13 ± 6 | B3 |
| binds |  | B4 |
| binds |  | B5 |
| binds |  | B6 |
| binds |  | B7 |
| binds |  | B8 |
| binds |  | B9 |
|  | 18 | GERLTSIEDKADNLAISAQGFKRGANRVRKQMWWKDLKMR (domain or fragment) [GST-Snc2p fragment (53–92 aa)] |

Target: T1, Snc2p-M2-His6 (R75E R79E K82E) …
Test: […], pH 7.4, 0.5 µg/µl BSA

| fold reduction in binding against wild-type Snc2p liposomes [fold] | Binder |
| --- | --- |
| ≥ 2 | B10 |

Target: B10
Test: […], pH 7.4, 0.5 µg/µl BSA

| binding result | Binder |
| --- | --- |
| binds | B11 |
